Measurements from paper PMC11005723, “Development of Complementary Photo‐arginine/lysine to Promote Discovery of Arg/Lys hPTMs Interactomes” (Advanced Science, 2024).

Target: His‐DPF2PHD (residues 270–391) (UniProt Q92785)
Assay: ITC; 25 °C, MicroCal PEAQ-ITC; protein in the cell titrated with 19 injections of peptide

His‐DPF2PHD (residues 270–391), sequence (Q92785 270-391): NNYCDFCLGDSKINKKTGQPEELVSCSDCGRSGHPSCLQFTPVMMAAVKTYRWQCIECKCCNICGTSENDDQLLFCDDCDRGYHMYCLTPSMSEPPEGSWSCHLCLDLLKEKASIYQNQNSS

Work on “native H3R2 peptide (H3_(1‐15) without diazirine and biotin)” yielded a Kd of 3.5 µM.
